The text below walks through data of patent US20110224407A1 (published 2011).

Assay [1] concerns the target human IFNAR-1 on human cells (HeLa, WISH, A549) (human) (UniProt P17181). As to the kind of experiment: cell-based or functional assay.
For assay [2], the target named is murine IFNAR-1 on murine cells (L-929, NFS-01) (murine) (UniProt P33896). As to the kind of experiment: cell-based or functional assay.
Assay [3] has as its target T1, human IFNAR1-ECD (human, UniProt P17181 28-436).
T1 construct: extracellular domain; Purified ECD captured on the chip by antibody DB2 and cross-linked with AA3; also called purified human IFNAR-1
T1 sequence (looked up): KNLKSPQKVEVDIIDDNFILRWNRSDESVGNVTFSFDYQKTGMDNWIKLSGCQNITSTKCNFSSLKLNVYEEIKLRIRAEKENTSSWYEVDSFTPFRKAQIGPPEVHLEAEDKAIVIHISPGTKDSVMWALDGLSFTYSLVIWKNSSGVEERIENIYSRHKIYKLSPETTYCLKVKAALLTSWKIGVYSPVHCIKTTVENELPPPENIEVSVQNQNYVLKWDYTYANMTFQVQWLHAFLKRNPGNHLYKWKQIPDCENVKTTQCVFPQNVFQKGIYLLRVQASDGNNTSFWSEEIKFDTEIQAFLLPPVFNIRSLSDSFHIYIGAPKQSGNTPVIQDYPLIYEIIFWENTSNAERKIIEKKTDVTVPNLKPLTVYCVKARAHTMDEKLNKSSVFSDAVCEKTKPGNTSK
As to the kind of experiment: SPR, IFNAR-1-ECD captured by antibody.
Description: Binding to purified human IFNAR-1 and IFNAR-2 is measured with the Protein Interaction Array system (Bio-Rad) according to published methods. A solution of 0.005% Tween20 in PBS pH 7.4 was used as running buffer at a flow rate of 30 μl/min. […] Thereafter, five of the six channels were reacted with IFNAR1-ECD or IFNAR2-ECD (180 μl at a concentration of 0.5 μM), leaving one channel free as reference. This was followed by cross-linking a second antibody. […] Data were analyzed with the BIAeval 4.1 software, using, the standard Langmuir models for fitting kinetic data. Dissociation constants KD were determined from the rate constants according to:

Where only a bound is given, the exact number is not on record here.

Sequence of murine IFNAR-1 on murine cells (L-929, NFS-01) (murine) (P33896 27-590): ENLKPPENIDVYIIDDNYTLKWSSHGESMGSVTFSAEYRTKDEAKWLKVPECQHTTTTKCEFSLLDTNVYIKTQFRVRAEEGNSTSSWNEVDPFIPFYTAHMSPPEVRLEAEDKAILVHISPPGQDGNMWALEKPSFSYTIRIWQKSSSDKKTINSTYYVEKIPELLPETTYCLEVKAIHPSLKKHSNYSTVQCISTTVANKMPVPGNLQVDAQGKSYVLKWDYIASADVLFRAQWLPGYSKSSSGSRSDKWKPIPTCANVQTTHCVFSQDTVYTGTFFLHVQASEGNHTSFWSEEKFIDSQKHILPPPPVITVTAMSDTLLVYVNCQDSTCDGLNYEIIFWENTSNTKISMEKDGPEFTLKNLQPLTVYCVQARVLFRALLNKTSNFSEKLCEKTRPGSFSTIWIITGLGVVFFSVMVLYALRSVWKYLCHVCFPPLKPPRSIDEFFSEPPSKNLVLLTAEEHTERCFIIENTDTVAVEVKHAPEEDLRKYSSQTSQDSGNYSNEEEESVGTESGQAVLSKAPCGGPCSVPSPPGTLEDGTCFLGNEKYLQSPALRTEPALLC

Consider “IFN-α2/α1 5-site alanine substitution mutant (F64/N65/L80/C85/Y89) (from UniProt A0A087WWS6 25-190) (ligand)”, for which, in assay [1], the Antiviral Activity (% of Native), Human (HeLa) worked out at 4.2% and the Antiviral Activity (% of Native), Human (Wish) is 11%.
In assay [1], “IFN-α2 NLYY-120A (N65A/L80A/Y85A/Y89A/R120A) (from UniProt P01563 24-188) (ligand)” gave an Antiproliferative Activity (% of Native EC50), Human (Wish) of less than 0.001%; an Antiviral Activity (% of Native EC50), Human (HeLa) of less than 0.002%; an Antiviral Activity (% of Native EC50), Human (Wish) of less than 0.001%.
Take “IFN-α2/α1[C85A] (from UniProt A0A087WWS6 25-190) (ligand)”: the Antiviral Activity (% of Native), Murine (L-929) in assay [2] worked out at 144%. This molecule also had an Antiviral Activity (% of Native), Human (HeLa) in assay [1] of 141%.
As to “IFN-α2/α1[K120A] (from UniProt A0A087WWS6 25-190) (ligand)”, in assay [2], the Antiproliferative Activity (% of native), Murine (NFS-01) amounted to 0.03% and the Antiviral Activity (% of Native), Murine (L-929) stood at 2%. Also, in assay [1], the Antiproliferative Activity (% of native), Human (WISH) was determined as 0.7%; the Antiviral Activity (% of Native), Human (HeLa) worked out at 2%; the Antiviral Activity (% of Native), Human (Wish) was determined as 9.7%.
Take “IFN-α2/α1[R124E] (from UniProt A0A087WWS6 25-190) (ligand)”: the Antiviral Activity (% of Native), Murine (L-929) in assay [2] turned out to be 100%. Besides, the Antiviral Activity (% of Native), Human (HeLa) in assay [1] turned out to be 20%.
For the molecule “IFN-α2/α1[K120A/K121A] (from UniProt A0A087WWS6 25-190) (ligand)”, in assay [2], the Antiproliferative Activity (% of native), Murine (NFS-01) is 8% and the Antiviral Activity (% of Native), Murine (L-929) was found to be 33%. In assay [1], this molecule came in with an Antiproliferative Activity (% of native), Human (WISH) of 0.5%; an Antiviral Activity (% of Native), Human (HeLa) of 8.3%; an Antiviral Activity (% of Native), Human (Wish) of 13.8%.
As to “IFN-α2/α1[L80A] (from UniProt A0A087WWS6 25-190) (ligand)”, the Antiviral Activity (% of Native), Murine (L-929) in assay [2] was 31%. The molecule also came in with an Antiviral Activity (% of native), Human; *Assay on human A549 cells in assay [1] of 19%.
In assay [2], “IFN-α2/α1[N65A/L80A/C85A/Y89A] (from UniProt A0A087WWS6 25-190) (ligand)” had an Antiviral Activity (% of Native), Murine (L-929) of 55%. Moreover, the Antiviral activity (relative %), IFN-α2/α1, Human HeLa (partial results) in assay [1] is 63%.
In assay [1], “IFN-α2/α1[C85A/Y89A] (from UniProt A0A087WWS6 25-190) (ligand)” registered an Antiviral Activity (% of Native), Human (HeLa) of 143% and an Antiviral Activity (% of Native), Human (Wish) of 183%.
Consider “IFN-α2/α1[K120E/K121E/R124E] (from UniProt A0A087WWS6 25-190) (ligand)”, for which the Antiviral Activity (% of Native), Murine (L-929) in assay [2] was less than 0.01%. In assay [1], this molecule registered an Antiproliferative Activity (% of native), Human (WISH) of less than 0.2%; an Antiviral Activity (% of Native), Human (HeLa) of less than 0.04%; an Antiviral Activity (% of Native), Human (Wish) of less than 0.1%.
As for “IFN-α2 NLYY-117A (N65A/L80A/Y85A/Y89A/L117A) (from UniProt P01563 24-188) (ligand)”, the Antiviral Activity (% of Native EC50), Human (Wish) in assay [1] is 0.03%.
“IFN-α2/α1[Y89A] (from UniProt A0A087WWS6 25-190) (ligand)” came in with an Antiviral Activity (% of Native), Murine (L-929) in assay [2] of 38%. In assay [1], this molecule displayed an Antiviral Activity (% of Native), Human (HeLa) of 69% and an Antiviral Activity (% of Native), Human (Wish) of 96%.
As to “IFN-α2/α1[K120E] (from UniProt A0A087WWS6 25-190) (ligand)”, in assay [2], the Antiproliferative Activity (% of native), Murine (NFS-01) was less than 0.0005% and the Antiviral Activity (% of Native), Murine (L-929) is less than 0.04%. Further, in assay [1], the Antiproliferative Activity (% of native), Human (WISH) is less than 0.02%; the Antiviral Activity (% of Native), Human (HeLa) was less than 0.04%; the Antiviral Activity (% of Native), Human (Wish) is less than 0.02%.
Take “IFN-α2b-[Arg120Glu/Lys121Glu] (from UniProt P01563 24-188) (ligand)”: in assay [1], the Antiproliferative Activity (% of Native EC50), Human (Wish) is less than 0.02%; the Antiviral Activity (% of Native EC50), Human (HeLa) was less than 1.3%; the Antiviral Activity (% of Native EC50), Human (Wish) is less than 0.002%.
With “IFN-α2/α1[K120E/K121E] (from UniProt A0A087WWS6 25-190) (ligand)”, in assay [2], the Antiproliferative Activity (% of native), Murine (NFS-01) was less than 0.0001% and the Antiviral Activity (% of Native), Murine (L-929) is less than 0.04%. In assay [1], this molecule yielded an Antiproliferative Activity (% of native), Human (WISH) of less than 0.05%; an Antiviral Activity (% of Native), Human (HeLa) of less than 0.08%; an Antiviral Activity (% of Native), Human (Wish) of 0.006%.
In assay [2], “IFN-α2/α1[K121E] (from UniProt A0A087WWS6 25-190) (ligand)” registered an Antiviral Activity (% of Native), Murine (L-929) of 0.5%. In assay [1], this molecule yielded an Antiviral Activity (% of Native), Human (HeLa) of 8%.
With “IFN-α2b[R120A] (from UniProt P01563 24-188) (ligand)”, in assay [1], the Antiproliferative Activity, Human (Wish; %) was 0.05% and the Antiviral Activity (% of Native EC50), Human (HeLa) is 2.3%.
Molecule “IFN-α2/α1[L80A/C85A/Y89A] (from UniProt A0A087WWS6 25-190) (ligand)” yielded an Antiviral Activity (% of Native), Murine (L-929) in assay [2] of 100%. For the same molecule, in assay [1], the Antiviral Activity (% of Native), Human (HeLa) turned out to be 54% and the Antiviral Activity (% of Native), Human (Wish) was found to be 204%.

B1: human-derived chimeric IFN-α2/α1 (native) (ligand)
chain: CDLPQTHSLGSRRTLMLLAQMRKISLFSCLKDRHDFGFPQEEFGNQFQKAETIPVLHEMIQQIFNLFTTKDSSAAWDEDLLDKFCTELYQQLNDLEACVMQEERVGETPLMNADSILAVKKYFRRITLYLTEKKYSPCAWEVVRAEIMRSLSLSTNLQERLRRKE
notes: the text itself names F64; E. coli; also called IFN-αA/D; Hu-alpha2/1
In the case of B1, in assay [3], the “fold stronger affinity than IFN-α2” value is roughly 5 fold and the “ratio of KD to that of IFN-α2” value is roughly 0.2.
